Assay [1] has as its target GST-H1.2 wild type (human) (UniProt P16403). Put plainly: pull-down; GST-H1.2 attached to glutathione beads, FITC-conjugated H3 peptides in solution; increasing KCl from 100 to 400 mM (Fig. S1A).
The target in assay [2] is Flag-tagged K27-mutated (K27R) H3 (in mononucleosomes) (human) (UniProt P68431). Put plainly: co-IP; MCF7 cells transfected with Flag-H3 WT or K27R; mononucleosomes by MNase digestion, immunoprecipitated with Flag antibody; Western blot with H1.2 antibody (Fig. 2A). For orientation: Immunoblotting shows a protein as a band on a membrane.

The substance FITC-conjugated H3K27me0 peptide showed a fold weaker interaction than the H3K27me3 peptide at elevated KCl in assay [1] of 3 fold.

For the substance FITC-conjugated H3K27me2 peptide, in assay [1], the fold weaker interaction than the H3K27me3 peptide at elevated KCl is 3 fold.

FITC-conjugated H3K27me1 peptide gave a fold weaker interaction than the H3K27me3 peptide at elevated KCl in assay [1] of 3 fold.

Consider “linker histone H1.2 (endogenous) (from UniProt P16403 1-213) (natural protein)”, for which the fold reduction of the interaction against wild type H3 nucleosomes in assay [2] was 2.5 fold.
